This is an account of results in PMC3518626 (Current biology : CB, 2012).

This data set deals with the molecule itself.

B1: Kip2-EGFP (natural protein, yeast, UniProt P28743 1-706, looked up)
chain: MIQKMSPSLRRPSTRSSSGSSNIPQSPSVRSTSSFSNLTRNSIRSTSNSGSQSISASSTRSNSPLRSVSAKSDPFLHPGRIRIRRSDSINNNSRKNDTYTGSITVTIRPKPRSVGTSRDHVGLKSPRYSQPRSNSHHGSNTFVRDPWFITNDKTIVHEEIGEFKFDHVFASHCTNLEVYERTSKPMIDKLLMGFNATIFAYGMTGSGKTFTMSGNEQELGLIPLSVSYLFTNIMEQSMNGDKKFDVIISYLEIYNERIYDLLESGLEESGSRISTPSRLYMSKSNSNGLGVELKIRDDSQYGVKVIGLTERRCESSEELLRWIAVGDKSRKIGETDYNARSSRSHAIVLIRLTSTNVKNGTSRSSTLSLCDLAGSERATGQQERRKEGSFINKSLLALGTVISKLSADKMNSVGSNIPSPSASGSSSSSGNATNNGTSPSNHIPYRDSKLTRLLQPALSGDSIVTTICTVDTRNDAAAETMNTLRFASRAKNVALHVSKKSIISNGNNDGDKDRTIELLRRQLEEQRRMISELKNRSNIGEPLTKSSNESTYKDIKATGNDGDPNLALMRAENRVLKYKLENCEKLLDKDVVDLQDSEIMEIVEMLPFEVGTLLETKFQGLESQIRQYRKYTQKLEDKIMALEKSGHTAMSLTGCDGTEVIELQKMLERKDKMIEALQSAKRLRDRALKPLINTQQSPHPVVDNDK
As for B1, the “stoichiometry N” value is 2.

A word on the stoichiometry N: it is a count of units in the complex or per binding partner.
